Reference: article PMC9428257 (2022)

B1: yeast-displayed wild-type sBCMA (human BCMA extracellular domain, Met1-Ala54) [human] / human APRIL (a proliferation-inducing ligand) [human] (parent complex)
chain 1: MLQMAGQCSQNEYFDSLLHACIPCQLRCSSNTPPLTCQRYCNASVTNSVKGTNA
chain 2: AVLTQKQKKQHSVLHLVPINATSKDDSDVTEVMWQPALRRGRGLQAQGYGVRIQDAGVYLLYSQVLFQDVTFTMGQVVSREGQGRQETLFRCIRSMPSHPDRAYNSCYSAGVFHLHQGDILSVIIPRARAKLNLSPHGTFLGFVKL

Variants of: B1
Test: flow cytometry binding curve of yeast-displayed sBCMA
Work on chain 1 S16G, chain 1 H19Y, chain 1 T36A yielded a screen value of 325.
